Measurements taken from the supplement of paper PMC10126150.
± gives the standard deviation of the averaged measurements.

Tested on: ATP
Experiment: switch fluorescence ratio, 500 uM ATP over buffer (Cy3 cluster intensity, sum of 5 cycles each) (fold (ratio)); higher = stronger signal-on switching upon ATP binding; sequences stand for … in TCGTCGGCAGCGTCAGATGTGTATAAGAGACAGTTTTTTTTTTTTTTTTTTTTTTTTT…TC
Settings: aptamer strand: ATP DNA aptamer (quencher-CACCTGGGGGAGTATTGCGGAGGAAGG + anchor), 100 nM annealed; ATP concentration: 500 uM
How it was run: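 Clusters carrying Cy3-labelled switching strands on a modified Illumina MiSeq flow-cell were annealed to 100 nM quencher-labelled ATP aptamer and imaged in selection buffer. They were imaged again after 15 min with 500 uM ATP at 22 °C, over five buffer/ATP cycles with NaOH stripping and re-annealing in between. For each cluster, the fluorescence ratio is the summed Cy3 intensity of the target cycles divided by that of the buffer cycles, averaged per switch-domain sequence. Clusters outside 100-1000 RFU were left out.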
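Note: ATP exposure 15 min at 22 °C before imaging.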

Row | Sequence | switch fluorescence ratio
1 | CCTTTTGGGT | 1.015 ± 0.0095
2 | CATTTCCTGG | 1.01 ± 0.044
3 | TGACTATGAT | 0.998 ± 0.015
4 | CGGGTCTCGA | 1.03 ± 0.04
5 | CAGAGAGTTT | 0.9851 ± 0.0044
6 | GGGGTGCACG | 0.988 ± 0.051
7 | CGGGATGGTT | 0.97 ± 0.11
8 | CAGGACACTA | 1.03 ± 0.026
9 | GCAGGGGCTC | 1 ± 0.027
10 | CGATATCTAC | 1.06 ± 0.016
11 | CTCCTTTTAT | 1.03 ± 0.029
12 | CGGGGAAGAT | 0.981 ± 0.016
13 | TTTACAGAGT | 1.06 ± 0.12
14 | TAGTAATTGA | 1 ± 0.02
15 | GAAGGGCATC | 0.989 ± 0.043
16 | TTATGACAGG | 0.993 ± 0.022
17 | GGGTGGAAAA | 0.997 ± 0.048
18 | ATGTGCGCAC | 1.002 ± 0.0023
19 | TCTGAAAAAG | 2.29 ± 1.9
20 | TTTGTCATTT | 0.98 ± 0.016
21 | GCCCAGTCAT | 0.997 ± 0.023
22 | GGGTAGTCTG | 1 ± 0.049
23 | TTAATTGAGT | 1.012 ± 0.0018

Row | Sequence | switch fluorescence ratio
24 | CAAAAGGGGT | 1.004 ± 0.0063
25 | TATGTTTTAT | 1.02 ± 0.048
26 | CGAGTGGGGT | 1.01 ± 0.043
27 | AATGATTGGG | 0.977 ± 0.02
28 | GAGGTGAGTT | 0.983 ± 0.01
29 | GTTGTAAGCA | 0.982 ± 0.053
30 | AGTTTATTC | 1.01 ± 0.061
31 | GTGTCTAGTA | 1 ± 0.02
32 | ATGTGGGGAG | 0.9941 ± 0.002
33 | TTACGGGGGG | 1.02 ± 0.052
34 | GGGGGATTTG | 0.998 ± 0.013
35 | GGTGTTAAAC | 1.01 ± 0.035
36 | AGGGTGACAG | 0.9566 ± 0.0056
37 | ATCTCTGAAG | 0.995 ± 0.013
38 | TCTTGGACGA | 0.991 ± 0.025
39 | CATGGTTGG | 1.01 ± 0.051
40 | TTTCTATTTT | 1.02 ± 0.066
41 | TCTCGAGGGA | 0.981 ± 0.01
42 | TTCAGGGGCA | 1.08 ± 0.033
43 | GCAGATTAGC | 1.033 ± 0.0044
44 | TACTCCATAT | 1.14 ± 0.019
45 | GAGGGAGCTT | 1.04 ± 0.026
46 | TTAACGCCGC | 1.13 ± 0.069

Row | Sequence | switch fluorescence ratio
47 | TATGATTTTG | 0.993 ± 0.02
48 | TTTCGCTC | 1.06 ± 0.019
49 | TGGGCCTCCA | 1 ± 0.036
50 | TCCGGGGGGG | 1.06 ± 0.094
51 | AGGTGGGGGC | 1.003 ± 0.0095
52 | GTGTGGGAGG | 1.04 ± 0.028
53 | TATGCTAAGG | 0.996 ± 0.025
54 | CTCCGTGGGA | 1.9 ± 0.68
55 | GGCTGCCGGG | 1.02 ± 0.025
56 | TCGATGGGGG | 0.942 ± 0.013
57 | CCTTTTAGCA | 2.07 ± 0.12
58 | GCCTTCGAGG | 1.03 ± 0.012
59 | ATCGGGTCCA | 0.979 ± 0.028
60 | AAATGTCCGG | 1 ± 0.024
61 | CAGACCTCGT | 1 ± 0.013
62 | AAAAACTAGT | 1.04 ± 0.035
63 | CAGTTAGTAC | 1.1 ± 0.018
64 | GTTGGATAAT | 1 ± 0.033
65 | AGGTAGGATT | 1.01 ± 0.05
66 | AGGTCAGGTT | 1.0131 ± 0.0003
67 | TGAAAACACG | 1.17 ± 0.22
68 | AGTTGCTGCT | 0.995 ± 0.02
69 | CCTCTGATCT | 1.38 ± 0.1

Row | Sequence | switch fluorescence ratio
70 | TAGTTATGGT | 1.04 ± 0.019
71 | AGATAGAGTT | 0.997 ± 0.021
72 | GAATGACAGT | 0.978 ± 0.018
73 | TATTGTGGAG | 0.983 ± 0.024
74 | TAGATGCACA | 0.9516 ± 0.0037
75 | AATCTGTTAT | 0.992 ± 0.033
76 | ATCATGGTGC | 1.13 ± 0.074
77 | GATGATCGTT | 0.988 ± 0.0094
78 | AAGCCATCCG | 1.07 ± 0.04
79 | ATTGTGTACT | 1 ± 0.031
80 | TTAGGATGGC | 1.2 ± 0.28
81 | CCTTGTATAT | 1.077 ± 0.0083
82 | AAAACGGATT | 0.977 ± 0.014
83 | TGAGTTTTGG | 1.02 ± 0.015
84 | GCAGGAAGAC | 3.48 ± 0.81
85 | AGGATAGTGT | 0.985 ± 0.036
86 | CATCGGATTT | 0.972 ± 0.01
87 | CGTTTCAGAT | 1.02 ± 0.02
88 | AGTTGGGGTA | 1 ± 0.013
89 | CACGTTTGTT | 1.027 ± 0.004
90 | AATTGGGATT | 0.998 ± 0.026
91 | GCATTATTCA | 1.04 ± 0.014
92 | CCCGGGTTAG | 1.08 ± 0.028

Row | Sequence | switch fluorescence ratio
93 | TGCCATCCTA | 0.9913 ± 0.005
94 | TTTGTTTGG | 1 ± 0.017
95 | TTGGGCCTCT | 1.01 ± 0.029
96 | GAGGACTAGG | 1.01 ± 0.013
97 | CGGTACAAGT | 1 ± 0.032
98 | CACTCATTTT | 0.98 ± 0.033
99 | TTTGTGACAG | 1.02 ± 0.018
100 | GGGGTAAGGA | 1 ± 0.021
101 | ATCGGCAGGC | 1.22 ± 0.075
102 | AGGTCGAGGG | 0.997 ± 0.026
103 | CTCGAAAAAA | 1.05 ± 0.014
104 | TTAAGATGGT | 0.983 ± 0.029
105 | TGAATTTAT | 0.998 ± 0.012
106 | GCTTGAGATT | 0.986 ± 0.015
107 | TAAACGCTGG | 0.999 ± 0.014
108 | GCTTGCCAAA | 0.998 ± 0.0083
109 | GGTGGTGTTT | 1 ± 0.026
110 | CCAGGGGGTC | 1.11 ± 0.14
111 | CTTGCTATGC | 1.64 ± 0.4
112 | GAGGACCCAG | 1.01 ± 0.027
113 | TGGTGGGGTG | 0.986 ± 0.012
114 | GTGATATCGG | 1.05 ± 0.034
115 | CATCTGCGGG | 1.16 ± 0.17

Row | Sequence | switch fluorescence ratio
116 | ACGGCATTAA | 1.165 ± 0.0043
117 | CTTGGCGAGA | 1.01 ± 0.018
118 | AGGGGGGACG | 0.915 ± 0.098
119 | GTATTAGGGG | 1.01 ± 0.028
120 | ACTAGGATGG | 0.99 ± 0.026
121 | TGTTGAAGGG | 1.01 ± 0.014
122 | ATGAAAAGGT | 0.976 ± 0.013
123 | TACTTGAGGG | 1.01 ± 0.019
124 | ATAACGGAGG | 0.9773 ± 0.0088
125 | GGGGTATGTA | 0.987 ± 0.055
126 | GCATCTACGG | 1.02 ± 0.019
127 | GGTATTGCGG | 1.05 ± 0.023
128 | GACTTTTTGT | 0.994 ± 0.011
129 | TACTGAGTTA | 1 ± 0.015
130 | GATCCAGAAG | 1.017 ± 0.0036
131 | TTTGCAAGGG | 1.81 ± 1.2
132 | TAAAAAGACC | 0.976 ± 0.035
133 | TTTTTAACTC | 1.03 ± 0.021
134 | CAATGGAGAA | 1.01 ± 0.021
135 | TCTCCTTTTT | 1.02 ± 0.053
136 | CCAGATTTGT | 1.01 ± 0.016
137 | TTTTAAGGCA | 1.03 ± 0.031
138 | AGCAGGACCC | 1.23 ± 0.054

Row | Sequence | switch fluorescence ratio
139 | ACCAGCTACA | 1.09 ± 0.033
140 | CCGGGTTTCG | 0.996 ± 0.035
141 | CGAGAAATTT | 1.01 ± 0.022
142 | ACCGGCCTGG | 1 ± 0.025
143 | AGGGGGTCTT | 1.01 ± 0.016
144 | TAGCTCGGTG | 1 ± 0.042
145 | GTTGGTTTGG | 1.04 ± 0.013
146 | GGCGGTTACT | 1.04 ± 0.015
147 | GGGGAGGAAA | 0.999 ± 0.029
148 | TGTGGAGCAT | 1.29 ± 0.071
149 | CGAGGATAAA | 0.994 ± 0.027
150 | GATTGAATAA | 0.997 ± 0.019
151 | AATCCTTGAG | 1.02 ± 0.034
152 | GGACTTTTCA | 0.96 ± 0.014
153 | CGCGGGTATG | 1.05 ± 0.026
154 | TGATTGGGTC | 1.02 ± 0.036
155 | TTATTCCTTT | 0.978 ± 0.042
156 | ACGGCCTGGG | 1.03 ± 0.03
157 | CCAGTAAGTG | 1.09 ± 0.03
